{"source": "patent US20250250297A1", "about": "“CO-ASSEMBLED PEPTIDE GRANULES FOR INTRACELLULAR PROTEIN DELIVERY” (University of Florida Research Foundation, Incorporated, priority 2022, published 2025)", "molecules": {"B1": {"name": "mCATCH(+) peptide, Ac-QQKPKPKPKQQ-Am (peptide)", "peptide": "Ac-QQKPKPKPKQQ-NH2", "notes": "Proline residues replace the phenylalanine residues of CATCH(+); also called mutant of CATCH(+)"}, "B2": {"name": "CATCH(-) peptide, Ac-EQEFEFEFEQE-Am (peptide)", "peptide": "Ac-EQEFEFEFEQE-NH2", "notes": "Synthetic anionic variant of Q11; also called CATCH(6-); CATCH (6-)"}, "B3": {"name": "CATCH(+) peptide, Ac-QQKFKFKFKQQ-Am (peptide)", "peptide": "Ac-QQKFKFKFKQQ-NH2", "notes": "Synthetic cationic variant of Q11; also called CATCH(4+); CATCH (4+)"}}, "key": {"[1]": {"experiment": "Granule formation with molar excess of positive peptide: effect of concentration, ion content and pH", "type": "physicochemical", "conditions": "molar excess of CATCH(6+) relative to CATCH(6−)-GFP", "method": "This example describes the effect on granule formation of using positive peptides in molar excess relative to negative peptides. Samples comprising molar excess of positive peptide (e.g., CATCH(6+)) relative to negative peptide (e.g., CATCH(6−)-GFP) were prepared and granule formation was measured after peptide co-assembly (see FIG. 61). […] Therein, the effect of sample ion content on granule formation was tested. Samples comprised 2 mM CATCH(6+) or CATCH(4+) and 30 μM CATCH(6−)-GFP."}, "cells in vitro": {"tested_on": "cells in vitro", "experiment": "Granule uptake compared to cell-penetrating peptide (L17E and Pep-1) uptake; CATCH(6+) titration; cell count", "type": "cell-based"}, "cells": {"tested_on": "cells", "experiment": "Delivery of granules comprising three co-assembling peptides; FACS sorting and NanoLuciferase activity", "type": "cell-based", "conditions": "for delivery into cells via granules of three co-assembling peptides: granules with CATCH(6+) and two distinct CATCH(6−) fusion peptides", "method": "Therein, the ability of cells to take up granules comprising three co-assembling peptides (e.g., a CATCH(6+) and two distinct CATCH(6−) fusion peptides comprising different fluorescent or colorimetric markers) was tested. […] Subsequent fluorescent-activated cell sorting (FACS) procedures were used to sort GFP-positive cells."}, "[2]": {"experiment": "Protein incorporation into macroscopic hydrogels (GFP retention under excess 1×PBS)", "type": "physicochemical", "method": "Macroscopic Hydrogel Formation. A 12 mM stock solution of CATCH(−) was prepared by dissolving dry peptide in 1×PBS and adjusting the pH to ˜7.6 with ammonium bicarbonate (Fisher). A 12 mM stock solution of CATCH(+) was prepared by dissolving dry peptide in 1×PBS and adjusting the pH to ˜7.2 with hydrochloric acid (0.5 N Fisher). CATCH peptide stock solutions were combined at a 1:1 (v/v) ratio in a 0.2 mL glass vial (Thermo), and the vial was gently swirled for 2 min until the hydrogel formed. The hydrogel was stained with red food coloring to aid visualization. Hydrogel images were recorded using a digital still camera.\nProtein Incorporation into Macroscopic Hydrogels. […] Immediately after hydrogel formation, fluorescence was visualized by placing the glass vials on a SafeImager 2.0 transilluminator (Invitrogen) and recording images with a digital still camera. […] At various time points, fluorescence in the buffer supernatant was visualized by placing the glass vials on a SafeImager 2.0 transilluminator (Invitrogen) and recording images with a digital still camera. At the endpoint, buffer supernatant was carefully removed by decanting and fluorescence was visualized by placing the glass vials on a SafeImager 2.0 transilluminator (Invitrogen) and recording images with a digital still camera."}, "[3]": {"conditions": "aqueous media; cited from earlier work"}, "[4]": {"biological_target": "T1, mCATCH(-) peptide, Ac-EQEPEPEPEQE-Am", "T1 construct": "Proline residues replace the phenylalanine residues of CATCH(-); also called mutant of CATCH(-)", "T1 peptide": "Ac-EQEPEPEPEQE-NH2", "experiment": "ThT fluorimetry, kinetic analysis"}, "[5]": {"biological_target": "B1", "experiment": "ThT fluorimetry, equimolar mixture in 1x PBS", "method": "(§1) Thioflavin T (ThT) Assay. A ThT stock solution containing 0.8 mg/mL of thioflavin T (Acros) in 1× phosphate-buffered saline (PBS) (137 mM NaCl, 2.7 mM KCl, 10 mM Na₂HPO₄ and 1.8 mM KH₂PO₄, pH 7.4) was filtered through a 0.22 μm syringe filter (Millex), and further diluted 1:10 with 1×PBS to create a working solution. Peptide samples were mixed with the ThT working solution at a 1:10 (v/v) ratio, added to a black 96-well plate (Corning), and analyzed with a Molecular Devices SpectraMax M3 spectrophotometer (excitation 450, emission 482 nm). All samples were run in triplicate, with the mean and standard deviation of these samples reported."}, "[6]": {"biological_target": "the molecule itself", "experiment": "TEM; circular dichroism also showed predominantly random coil when incubated alone"}, "[7]": {"biological_target": "T1, mCATCH(-) peptide, Ac-EQEPEPEPEQE-Am", "experiment": "ThT fluorimetry, equimolar mixture in 1x PBS", "method": "as §1"}}, "note": "No end group written: not given here.", "data": [{"molecule": "KQKFKFKFKQK [CATCH(6+)]", "values": [{"measurement": "granule size by scanning electron microscopy at higher positive peptide concentrations", "setting": "[1]", "result": "larger granules"}, {"measurement": "effect of titration of peptide concentration on number of transduced cells", "setting": "cells in vitro", "result": "enabled control on the number of transduced cells"}]}, {"molecule": "CATCH(6−)-mRuby: CATCH(6−) fusion peptide with fluorescent marker mRuby (EQEFEFEFEQE; not fully specified (C-terminus); also: fusion with mRuby, not in chain)", "values": [{"measurement": "delivery into cells via granules of three co-assembling peptides", "setting": "cells", "result": "delivered into cells"}]}, {"molecule": "CATCH(−)GFP: recombinant fusion of CATCH(−) and superfolder green fluorescent protein (GFP)", "values": [{"measurement": "fluorescence of CATCH hydrogels after incubation under volumetric excess of 1×PBS", "setting": "[2]; 48 h, hydrogel from 12 mM CATCH(+) and CATCH(−)", "result": "retained their fluorescence"}, {"measurement": "GFP in the buffer layer over hydrogels", "setting": "[2]; up to 48 h under excess 1×PBS", "result": "no GFP was detected"}, {"measurement": "delivery into cells via granules of three co-assembling peptides", "setting": "cells", "result": "delivered into cells"}]}, {"molecule": "Ac-QQKFQFQFEQQ-Am (Ac-QQKFQFQFEQQ-NH2) [Q11]", "values": [{"measurement": "concentration at which peptide self-assembles into β-sheet nanofibers", "setting": "[3]", "result": "~10", "unit": "µM"}]}, {"molecule": "CATCH(6−)-NanoLuciferase: CATCH(6−) fusion with NanoLuciferase (EQEFEFEFEQE; not fully specified (C-terminus); also: fusion with NanoLuciferase, not in chain)", "values": [{"measurement": "NanoLuciferase activity in sorted GFP-positive cells", "setting": "cells; after FACS, granules with CATCH(6−)-GFP and CATCH(6−)-NanoLuciferase", "result": "high levels"}, {"measurement": "delivery into cells via granules of three co-assembling peptides", "setting": "cells", "result": "successfully delivered into cells"}]}, {"molecule": "B1", "values": [{"measurement": "binding result", "setting": "[4]", "result": "no binding"}]}, {"molecule": "B2", "values": [{"measurement": "binding result", "setting": "[5]", "result": "no binding"}, {"measurement": "binding result", "setting": "[6]", "result": "no binding"}]}, {"molecule": "B3", "values": [{"measurement": "binding result", "setting": "[7]", "result": "no binding"}, {"measurement": "binding result", "setting": "[6]", "result": "no binding"}]}]}
